Test results reported in the supplement of paper PMC10724198.
± gives the standard deviation of the averaged measurements.

What was measured:
[1] = tested on: Saccharomyces cerevisiae; assay: protein stability index of tFT-peptide fusion (C-terminal peptide) (PSI (0-1 scale)); higher = more stable (slower turnover)
Experimental: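 MPS profiling in S. cerevisiae of the tFT-X12 degron library: putative degron peptides plus stable controls, 12 aa, fused to the C-terminus of a sfGFP-mCherry timer. Cells are FACS-sorted into 8 mCherry/sfGFP bins and deep-sequenced. PSI runs from 0 (unstable) to 1 (stable). Backgrounds are wild type, das1Δ and doa10Δ at 30 °C, and wild type, das1Δ, cdc34-1 and cdc53-1 at 37 °C; 2-3 technical replicates each.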

[2] = tested on: Saccharomyces cerevisiae; assay: as above; details: genetic background: wild type; temperature: 30 C
[3] = genetic background: cdc34-1, temperature: 37 C
[4] = genetic background: cdc53-1, temperature: 37 C
[5] = genetic background: das1 deletion, temperature: 30 C
[6] = genetic background: das1 deletion, temperature: 37 C
[7] = genetic background: doa10 deletion, temperature: 30 C
[8] = genetic background: wild type, temperature: 30 C
[9] = genetic background: wild type, temperature: 37 C
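Further: PSI is a weighted mean of sequencing reads over stability bins, variants kept only with over 10 reads, mCherry proximal and sfGFP distal, peptide attached via GGGS linker.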

Sequence	protein stability index [1, 3]	protein stability index [1, 4]	protein stability index [1, 5]	protein stability index [1, 6]	protein stability index [1, 7]	protein stability index [1, 8]	protein stability index [1, 9]	protein stability index [2]
LCFVFVLGFFAF	0.379 ± 0.058	0.4836 ± 0.0019	0.349 ± 0.031	0.488 ± 0.0085	0.319 ± 0.011	0.334 ± 0.012	0.501 ± 0.022	0.421 ± 0.017
LCTCFLVLLLWC	0.387 ± 0.032	0.404 ± 0.02	0.339 ± 0.024	0.46 ± 0.01	0.34 ± 0.01	0.315 ± 0.018	0.4407 ± 0.0027	0.337 ± 0.1
LCVFRFFLFFFL	0.35 ± 0.012	0.371 ± 0.034	0.327 ± 0.032	0.461 ± 0.012	0.364 ± 0.019	0.291 ± 0.027	0.427 ± 0.016	0.402 ± 0.054
LDFPPLRLILRL	0.601 ± 0.019	0.609 ± 0.0072	0.584 ± 0.035	0.6464 ± 0.0014	0.658 ± 0.017	0.538 ± 0.049	0.6071 ± 0.0026	0.538 ± 0.064
LEPFTGYTVIVM	0.165 ± 0.045	0.185 ± 0.015	0.232 ± 0.045	0.331 ± 0.021	0.189 ± 0.0054	0.236 ± 0.034	0.261 ± 0.032	0.334 ± 0.048
LFDVLFVFSFIF	0.4681 ± 0.0013	0.524 ± 0.006	0.413 ± 0.017	0.535 ± 0.015	0.432 ± 0.034	0.42 ± 0.024	0.503 ± 0.019	0.449 ± 0.045
LFFASFLLIGPF	0.4091 ± 0.0033	0.4803 ± 0.003	0.375 ± 0.039	0.499 ± 0.014	0.354 ± 0.03	0.321 ± 0.037	0.483 ± 0.041	0.393 ± 0.0098
LFFFFLPHLILL	0.3403 ± 0.00055	0.321 ± 0.041	0.321 ± 0.046	0.4803 ± 0.004	0.404 ± 0.058	0.26 ± 0.028	0.395 ± 0.011	0.377 ± 0.035
LFHPPSFSLRLF	0.681 ± 0.038	0.738 ± 0.025	0.678 ± 0.019	0.748 ± 0.023	0.301 ± 0.038	0.348 ± 0.025	0.5619 ± 0.0044	0.528 ± 0.25
LFHVWSLRFFWL	0.576 ± 0.039	0.669 ± 0.017	0.557 ± 0.018	0.6837 ± 0.0039	0.2583 ± 0.00064	0.282 ± 0.027	0.434 ± 0.015	0.391 ± 0.023
LFLFVGCSVRRL	0.528 ± 0.023	0.58092 ± 0.00029	0.392 ± 0.034	0.599 ± 0.021	0.374 ± 0.0049	0.391 ± 0.014	0.5744 ± 0.0024	0.4951 ± 0.0047
LFLLYVLVSLFV	0.288 ± 0.019	0.347 ± 0.064	0.267 ± 0.048	0.369 ± 0.019	0.222 ± 0.0045	0.251 ± 0.025	0.39 ± 0.052	0.281 ± 0.045
LFLVVVVRAGGF	0.144 ± 0.042	0.288 ± 0.058	0.214 ± 0.03	0.4065 ± 0.0012	0.187 ± 0.0076	0.208 ± 0.022	0.382 ± 0.045	0.293 ± 0.0094
LFPVASLCLART	0.643 ± 0.028	0.648 ± 0.048	0.527 ± 0.036	0.663 ± 0.0042	0.513 ± 0.022	0.524 ± 0.023	0.659 ± 0.057	0.529 ± 0.065
LFRFVFLLFGFW	0.452 ± 0.019	0.428 ± 0.025	0.435 ± 0.015	0.566 ± 0.032	0.4885 ± 0.0013	0.423 ± 0.034	0.526 ± 0.026	0.446 ± 0.049
LFRNIFLFVFLI	0.267 ± 0.029	0.229 ± 0.0072	0.362 ± 0.021	0.468 ± 0.012	0.334 ± 0.0071	0.241 ± 0.02	0.307 ± 0.016	0.306 ± 0.029
LFWTWVLVGVSV	0.1462 ± 0.0014	0.176 ± 0.029	0.192 ± 0.022	0.283 ± 0.013	0.127 ± 0.0013	0.164 ± 0.015	0.263 ± 0.033	0.256 ± 0.028
LGATYSVQLYVS	0.336 ± 0.044	0.577 ± 0.022	0.539 ± 0.038	0.621 ± 0.013	0.0746 ± 0.012	0.0832 ± 0.015	0.0856 ± 0.005	0.131 ± 0.0029
LGIPKLLCFVCT	0.424 ± 0.011	0.432 ± 0.0061	0.304 ± 0.023	0.465 ± 0.02	0.248 ± 0.0065	0.29 ± 0.019	0.421 ± 0.017	0.386 ± 0.019
LGLCFFFYSLHS	0.539 ± 0.064	0.58 ± 0.037	0.411 ± 0.041	0.586 ± 0.013	0.37 ± 0.0054	0.401 ± 0.016	0.599 ± 0.057	0.462 ± 0.0096

Sequence	protein stability index [1, 3]	protein stability index [1, 4]	protein stability index [1, 5]	protein stability index [1, 6]	protein stability index [1, 7]	protein stability index [1, 8]	protein stability index [1, 9]	protein stability index [2]
LGNVTDVMHRLS	0.645 ± 0.038	0.739 ± 0.0094	0.6481 ± 0.0036	0.734 ± 0.023	0.328 ± 0.0097	0.379 ± 0.012	0.617 ± 0.012	0.48 ± 0.0083
LGVVLFCFRFCR	0.464 ± 0.0074	0.556 ± 0.028	0.391 ± 0.022	0.598 ± 0.022	0.353 ± 0.0068	0.371 ± 0.027	0.543 ± 0.019	0.477 ± 0.005
LHFHIYLIISPF	0.117 ± 0.0026	0.137 ± 0.022	0.2 ± 0.02	0.311 ± 0.0072	0.238 ± 0.011	0.186 ± 0.034	0.261 ± 0.01	0.294 ± 0.012
LHLLFLPFVVCL	0.212 ± 0.017	0.2458 ± 0.0015	0.216 ± 0.037	0.348 ± 0.027	0.0556 ± 0.012	0.0711 ± 0.025	0.113 ± 0.014	0.108 ± 0.02
LIFFFCSWVFRF	0.3037 ± 0.00048	0.291 ± 0.032	0.402 ± 0.061	0.464 ± 0.031	0.327 ± 0.044	0.272 ± 0.038	0.365 ± 0.0071	0.377 ± 0.012
LIFLSISFISSL	0.1 ± 0.0059	0.245 ± 0.049	0.168 ± 0.036	0.316 ± 0.028	0.104 ± 0.043	0.15 ± 0.037	0.286 ± 0.0096	0.295 ± 0.05
LILFMLLSFLTT	0.371 ± 0.013	0.409 ± 0.042	0.294 ± 0.028	0.419 ± 0.018	0.281 ± 0.016	0.293 ± 0.025	0.3954 ± 0.0026	0.373 ± 0.032
LIRVLRVLRHSS	0.607 ± 0.015	0.6917 ± 0.0043	0.638 ± 0.018	0.7225 ± 0.0011	0.167 ± 0.0097	0.194 ± 0.021	0.382 ± 0.045	0.375 ± 0.056
LLAVIVWIVPPA	0.241 ± 0.01	0.35 ± 0.0085	0.233 ± 0.023	0.423 ± 0.0079	0.204 ± 0.0016	0.222 ± 0.028	0.39 ± 0.0093	0.304 ± 0.042
LLCRVSRTRILC	0.478 ± 0.026	0.533 ± 0.0097	0.426 ± 0.021	0.58 ± 0.0099	0.104 ± 0.012	0.128 ± 0.013	0.166 ± 0.022	0.227 ± 0.013
LLDIYFILLVWF	0.263 ± 0.02	0.237 ± 0.03	0.267 ± 0.023	0.399 ± 0.024	0.359 ± 0.021	0.258 ± 0.019	0.432 ± 0.066	0.346 ± 0.29
LLFLWVLFLPFA	0.4449 ± 0.00067	0.469 ± 0.005	0.346 ± 0.036	0.5234 ± 0.0037	0.361 ± 0.012	0.342 ± 0.026	0.472 ± 0.0041	0.363 ± 0.045
LLFPRVLVLCFS	0.034 ± 0.011	0.0512 ± 0.0018	0.124 ± 0.037	0.154 ± 0.0093	0.105 ± 0.016	0.117 ± 0.024	0.116 ± 0.012	0.183 ± 0.029
LLILIVNLRRIG	0.376 ± 0.0085	0.556 ± 0.069	0.36 ± 0.04	0.607 ± 0.028	0.1983 ± 0.0009	0.235 ± 0.011	0.444 ± 0.025	0.281 ± 0.052
LLISPFLFLLVC	0.0704 ± 0.043	0.0371 ± 0.002	0.0907 ± 0.02	0.0981 ± 0.022	0.0594 ± 0.018	0.0605 ± 0.014	0.0515 ± 0.00088	0.0803 ± 0.024
LLLLGVSLFLVR	0.282 ± 0.0053	0.378 ± 0.011	0.265 ± 0.019	0.454 ± 0.0081	0.223 ± 0.013	0.255 ± 0.018	0.4257 ± 0.0031	0.3657 ± 0.00075
LLLPSAPFLFLL	0.305 ± 0.015	0.256 ± 0.0043	0.307 ± 0.041	0.435 ± 0.029	0.3387 ± 0.0022	0.201 ± 0.017	0.288 ± 0.014	0.2954 ± 0.0012
LLMLWWARVFSG	0.296 ± 0.032	0.395 ± 0.045	0.298 ± 0.015	0.408 ± 0.0072	0.209 ± 0.016	0.243 ± 0.036	0.35 ± 0.0075	0.329 ± 0.0066
LLVFWRLWWSLS	0.248 ± 0.035	0.334 ± 0.011	0.251 ± 0.034	0.429 ± 0.028	0.081 ± 0.026	0.0903 ± 0.018	0.128 ± 0.007	0.157 ± 0.0075
